From article PMC12990809

Experiments:
Test in all cases: pulldown
Details in all cases: 20 nM protein, 1.5 uM RNA pool; 20 mM HEPES pH 7.8, 70 mM KCl, 10 mM NaCl, 10% glycerol, 2 mM DTT, 0.1 ug/uL BSA; 30 min, 4 C
[1] = target: T1, sart3 (Tetraodon nigroviridis) (UniProt H3DEK9)
T1 sequence: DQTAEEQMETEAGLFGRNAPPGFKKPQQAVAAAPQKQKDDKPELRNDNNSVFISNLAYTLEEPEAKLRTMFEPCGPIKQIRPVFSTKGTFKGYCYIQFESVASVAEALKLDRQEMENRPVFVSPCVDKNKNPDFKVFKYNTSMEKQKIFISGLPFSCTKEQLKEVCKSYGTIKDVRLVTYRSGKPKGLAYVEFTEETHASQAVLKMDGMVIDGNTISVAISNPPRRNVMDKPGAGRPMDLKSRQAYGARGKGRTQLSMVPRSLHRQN

[2] = target: RBPMS2 (Monodelphis domestica) (UniProt A0A5F8GJ20)
RBPMS2 (Monodelphis domestica), sequence (A0A5F8GJ20 entry or part of it): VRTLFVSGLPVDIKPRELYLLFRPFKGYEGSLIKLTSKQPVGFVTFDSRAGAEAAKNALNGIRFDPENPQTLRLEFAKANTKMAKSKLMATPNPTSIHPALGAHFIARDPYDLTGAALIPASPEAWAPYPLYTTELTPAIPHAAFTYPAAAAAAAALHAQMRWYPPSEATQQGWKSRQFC

[3] = target: T2, PK21582.1 S73F;V173L (Cannabis sativa) (UniProt A0A7J6HF55)
T2 sequence: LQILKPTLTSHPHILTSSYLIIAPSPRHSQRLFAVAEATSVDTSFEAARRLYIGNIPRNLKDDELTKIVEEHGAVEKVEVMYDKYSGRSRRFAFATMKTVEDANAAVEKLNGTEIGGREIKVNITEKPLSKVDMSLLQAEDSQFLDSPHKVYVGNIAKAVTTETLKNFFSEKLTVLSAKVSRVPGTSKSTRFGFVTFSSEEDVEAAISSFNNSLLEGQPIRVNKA

[4] = target: T3, LmjF.30.1110 (Leishmania major) (UniProt Q4Q7J2)
T3 sequence: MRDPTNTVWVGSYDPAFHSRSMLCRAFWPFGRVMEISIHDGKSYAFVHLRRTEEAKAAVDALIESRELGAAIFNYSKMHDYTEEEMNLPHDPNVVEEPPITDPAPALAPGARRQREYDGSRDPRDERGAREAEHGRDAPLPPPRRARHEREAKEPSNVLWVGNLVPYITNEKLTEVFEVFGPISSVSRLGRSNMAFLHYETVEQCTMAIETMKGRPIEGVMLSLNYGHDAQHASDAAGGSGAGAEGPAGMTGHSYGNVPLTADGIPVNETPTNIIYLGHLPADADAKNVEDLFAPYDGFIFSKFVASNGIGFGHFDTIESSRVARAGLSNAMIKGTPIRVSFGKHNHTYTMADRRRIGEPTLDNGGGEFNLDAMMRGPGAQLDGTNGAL

[5] = target: T4, PK00353.1 del132-144;P293S (Cannabis sativa) (UniProt A0A7J6GFS8)
T4 sequence: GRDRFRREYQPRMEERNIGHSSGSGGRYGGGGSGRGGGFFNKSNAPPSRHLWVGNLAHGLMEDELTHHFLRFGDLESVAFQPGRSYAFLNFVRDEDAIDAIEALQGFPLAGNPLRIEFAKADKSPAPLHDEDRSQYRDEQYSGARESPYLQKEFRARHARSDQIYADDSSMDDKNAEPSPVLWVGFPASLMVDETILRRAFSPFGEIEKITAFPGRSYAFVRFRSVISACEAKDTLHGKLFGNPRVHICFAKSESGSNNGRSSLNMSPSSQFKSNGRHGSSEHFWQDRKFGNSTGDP

[6] = target: T5, LmjF.29.1370 (Leishmania major) (UniProt E9ADZ6)
T5 sequence: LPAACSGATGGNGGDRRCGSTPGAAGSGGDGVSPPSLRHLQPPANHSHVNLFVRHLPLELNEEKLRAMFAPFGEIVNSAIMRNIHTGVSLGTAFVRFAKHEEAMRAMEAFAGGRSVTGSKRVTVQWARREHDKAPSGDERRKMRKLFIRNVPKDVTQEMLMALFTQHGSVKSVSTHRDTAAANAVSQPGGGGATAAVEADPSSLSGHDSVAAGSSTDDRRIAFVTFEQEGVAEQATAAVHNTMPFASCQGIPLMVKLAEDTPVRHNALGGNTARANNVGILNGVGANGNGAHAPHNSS

[7] = target: T6, CG4806 (Drosophila melanogaster) (UniProt Q3ZAN6)
T6 sequence: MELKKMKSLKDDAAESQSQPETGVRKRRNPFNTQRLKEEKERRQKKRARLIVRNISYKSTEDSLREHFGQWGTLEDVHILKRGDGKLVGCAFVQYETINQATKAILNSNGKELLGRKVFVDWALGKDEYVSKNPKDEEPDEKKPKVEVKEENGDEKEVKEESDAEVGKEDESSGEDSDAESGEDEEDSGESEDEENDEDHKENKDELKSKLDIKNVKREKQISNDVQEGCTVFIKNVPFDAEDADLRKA

[8] = target: T7, Tb11.01.5690 S174N (Trypanosoma brucei) (UniProt Q382C7)
T7 sequence: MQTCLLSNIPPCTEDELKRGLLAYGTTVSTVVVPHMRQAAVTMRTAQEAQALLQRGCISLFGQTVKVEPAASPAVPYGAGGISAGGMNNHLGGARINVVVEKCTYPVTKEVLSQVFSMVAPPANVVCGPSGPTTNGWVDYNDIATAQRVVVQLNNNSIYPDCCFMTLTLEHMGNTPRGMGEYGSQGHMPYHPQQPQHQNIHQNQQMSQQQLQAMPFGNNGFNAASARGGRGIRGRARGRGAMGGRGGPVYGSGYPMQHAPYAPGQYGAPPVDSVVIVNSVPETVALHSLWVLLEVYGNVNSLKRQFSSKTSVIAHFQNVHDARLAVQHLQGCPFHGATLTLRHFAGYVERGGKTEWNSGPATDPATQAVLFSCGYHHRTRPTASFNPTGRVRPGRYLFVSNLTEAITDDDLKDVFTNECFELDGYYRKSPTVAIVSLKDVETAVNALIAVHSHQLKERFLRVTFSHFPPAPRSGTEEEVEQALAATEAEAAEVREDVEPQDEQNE

[9] = target: T8, TBPH (Drosophila melanogaster) (UniProt E1JGV0)
T8 sequence: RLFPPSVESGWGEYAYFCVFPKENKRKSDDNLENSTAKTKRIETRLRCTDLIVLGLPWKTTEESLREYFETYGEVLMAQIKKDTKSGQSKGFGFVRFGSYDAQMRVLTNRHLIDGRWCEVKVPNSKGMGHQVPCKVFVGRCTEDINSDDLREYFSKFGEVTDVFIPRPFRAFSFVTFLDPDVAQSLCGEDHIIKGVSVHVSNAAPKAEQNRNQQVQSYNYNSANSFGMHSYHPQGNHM

**Q.** With AGAGAAG [RNAcompete motif RNCMPT00774] as the substance, how does the binding signal (z-score (mean of top ten 7-mers)) [1] read?
**A.** 11.5

**Q.** How did the binding signal (z-score (mean of top ten 7-mers)) [2] turn out when ANCACG [RNAcompete motif RNCMPT00757] was run?
**A.** 8.74

**Q.** Which binding signal (z-score (mean of top ten 7-mers)) [3] does the source give for ANUGGAA [RNAcompete motif RNCMPT00792] here?
**A.** 10.3

**Q.** Which binding signal (z-score (mean of top ten 7-mers)) [4] does the source give for AUGAUG [RNAcompete motif RNCMPT00763] here?
**A.** 10.7

**Q.** Which binding signal (z-score (mean of top ten 7-mers)) [5] does the source give for CAAAGCA [RNAcompete motif RNCMPT00789] here?
**A.** 7.23

**Q.** With CAUAGU [RNAcompete motif RNCMPT00762] as the substance, how does the binding signal (z-score (mean of top ten 7-mers)) [6] read?
**A.** 29.8

**Q.** For CUGUAGUA [RNAcompete motif RNCMPT00784], which binding signal (z-score (mean of top ten 7-mers)) [7] is on record?
**A.** 7.2

**Q.** For GAAAGAAA [RNAcompete motif RNCMPT00773], which binding signal (z-score (mean of top ten 7-mers)) [8] is on record?
**A.** 9.18

**Q.** With GANUGA [RNAcompete motif RNCMPT00776] as the substance, how does the binding signal (z-score (mean of top ten 7-mers)) [9] read?
**A.** 9.14
